Results as given in PMC4974476, “Structural basis for LIN54 recognition of CHR elements in cell cycle-regulated promoters”.

Columns and labels:
LIN54 DBD-N = LIN54 DBD-N (Homo sapiens, UniProt Q6MZP7 515-574); experiment: fluorescence polarization; ITC (25 C) and FP: 20 mM Tris, 150 mM NaCl, 0.1% Tween 20, pH 8.0; NMR: 35 mM MES, 75 mM NaCl, 5% D2O, pH 6.0, 25 C; settings: protein: recombinant; tags: N-terminal GST with TEV site, cleaved; label: 3' TAMRA on strand 1; blunt
LIN54 DBD-C [1] = target: T1, LIN54 DBD-C (Homo sapiens, UniProt Q6MZP7 589-646); experiment: as above; settings: protein: recombinant; tags: N-terminal GST with TEV site, cleaved; label: 3' TAMRA on strand 1; blunt
T1 sequence (Q6MZP7 589-646): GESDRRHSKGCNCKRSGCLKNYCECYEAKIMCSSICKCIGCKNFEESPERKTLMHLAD

LIN54 DBD [2] = target: T2, LIN54 DBD (Homo sapiens, UniProt Q6MZP7 515-646); experiment: as above; settings: protein: recombinant, tags: N-terminal GST with TEV site, cleaved, blunt
T2 sequence (Q6MZP7 515-646): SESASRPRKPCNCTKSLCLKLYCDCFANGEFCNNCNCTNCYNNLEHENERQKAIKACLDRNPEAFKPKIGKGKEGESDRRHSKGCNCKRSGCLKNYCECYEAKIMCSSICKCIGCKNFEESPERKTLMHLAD

LIN54 DBD-C [3] = target: T1, LIN54 DBD-C; experiment: NMR HSQC titration; 35 mM MES, 75 mM NaCl, pH 6.0, 25 C; ITC (25 C) and FP: 20 mM Tris, 150 mM NaCl, 0.1% Tween 20, pH 8.0; NMR: 35 mM MES, 75 mM NaCl, 5% D2O, pH 6.0, 25 C; settings: protein: recombinant; tags: N-terminal GST with TEV site, cleaved; blunt
LIN54 DBD Y536A = LIN54 DBD Y536A (Homo sapiens, UniProt Q6MZP7 515-646, Y536A); experiment: ITC; ITC (25 C) and FP: 20 mM Tris, 150 mM NaCl, 0.1% Tween 20, pH 8.0; NMR: 35 mM MES, 75 mM NaCl, 5% D2O, pH 6.0, 25 C; settings: protein: recombinant; tags: N-terminal GST with TEV site, cleaved; blunt
Sequence of LIN54 DBD Y536A (Q6MZP7 515-646 Y536A): as the sequence (Q6MZP7 515-646) above, with Y22A counted along it

LIN54 DBD Y610A = LIN54 DBD Y610A (Homo sapiens, UniProt Q6MZP7 515-646, Y610A); experiment: as above; settings: protein: recombinant; tags: N-terminal GST with TEV site, cleaved; blunt
Sequence of LIN54 DBD Y610A (Q6MZP7 515-646 Y610A): as the sequence (Q6MZP7 515-646) above, with Y96A counted along it

LIN54 DBD Y610F = LIN54 DBD Y610F (Homo sapiens, UniProt Q6MZP7 515-646, Y610F); experiment: as above; settings: protein: recombinant; tags: N-terminal GST with TEV site, cleaved; blunt
Sequence of LIN54 DBD Y610F (Q6MZP7 515-646 Y610F): as the sequence (Q6MZP7 515-646) above, with Y96F counted along it

LIN54 DBD Y536R = LIN54 DBD Y536R (Homo sapiens, UniProt Q6MZP7 515-646, Y536R); experiment: as above; settings: protein: recombinant; tags: N-terminal GST with TEV site, cleaved; blunt
Sequence of LIN54 DBD Y536R (Q6MZP7 515-646 Y536R): as the sequence (Q6MZP7 515-646) above, with Y22R counted along it

LIN54 DBD Y536F = LIN54 DBD Y536F (Homo sapiens, UniProt Q6MZP7 515-646, Y536F); experiment: as above; settings: protein: recombinant; tags: N-terminal GST with TEV site, cleaved; blunt
Sequence of LIN54 DBD Y536F (Q6MZP7 515-646 Y536F): as the sequence (Q6MZP7 515-646) above, with Y22F counted along it

LIN54 DBD [4] = target: T2, LIN54 DBD; experiment: as above; settings: protein: recombinant; tags: N-terminal GST with TEV site, cleaved; blunt
LIN54 DBD Y610R = LIN54 DBD Y610R (Homo sapiens, UniProt Q6MZP7 515-646, Y610R); experiment: as above; settings: protein: recombinant; tags: N-terminal GST with TEV site, cleaved; blunt
Sequence of LIN54 DBD Y610R (Q6MZP7 515-646 Y610R): as the sequence (Q6MZP7 515-646) above, with Y96R counted along it

Sequence of LIN54 DBD-N (Q6MZP7 515-574): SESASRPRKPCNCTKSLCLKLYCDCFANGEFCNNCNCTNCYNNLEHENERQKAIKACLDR

B1: CHR27 (dsDNA)
DNA 1: CCTTTAGCGCGGTGAGTTTGAAACTGTAA
DNA 2: TTACAGTTTCAAACTCACCGCGCTAAAGG
**Q.** Does B1 bind (LIN54 DBD-N)?
**A.** Result: no binding

**Q.** Does B1 bind (LIN54 DBD-C [1])?
**A.** Result: no binding

**Q.** What about the Kd (LIN54 DBD [2]; label: 3' TAMRA on strand 1) of the same binder?
**A.** Its Kd is 0.43 ± 0.08 µM.

B2: CHR13 (FP) (dsDNA)
DNA 1: GAGTTTGAAACTG
DNA 2: CAGTTTCAAACTC
**Q.** With B2 as the binder, how does the Kd (LIN54 DBD [2]) read?
**A.** Its Kd is 5 ± 2 µM.

B3: CHR13 (dsDNA)
DNA 1: GAGTTTGAAACTG
DNA 2: CAGTTTCAAACTC
**Q.** For B3, which Kd (LIN54 DBD-C [3]) is on record?
**A.** Its Kd is 500 ± 100 µM.

**Q.** Does B3 bind (LIN54 DBD Y536A)?
**A.** Result: no binding

**Q.** Does B3 bind (LIN54 DBD Y610A)?
**A.** Result: no binding

**Q.** Does B3 bind (LIN54 DBD Y610F)?
**A.** Result: no binding

**Q.** Does B3 bind (LIN54 DBD Y536R)?
**A.** Result: no binding

**Q.** Does B3 bind (LIN54 DBD Y536F)?
**A.** Result: no binding

**Q.** What about the Kd (LIN54 DBD [4]) of the same binder?
**A.** The Kd was 2.8 ± 0.1 µM.

**Q.** Does B3 bind (LIN54 DBD Y610R)?
**A.** Result: no binding
